Measured values taken from publication PMC11420332 (Biologics : Targets & Therapy, 2024).

How the values were obtained:
Assay in all cases: ELISA
IL-17B = IL-17B (Homo sapiens, UniProt Q9UHF5)
IL-17C = IL-17C (Homo sapiens, UniProt Q9P0M4)
IL-17D = IL-17D (Homo sapiens, UniProt Q8TAD2)

Measured: binding result

Sequence of IL-17B (Q9UHF5 21-180): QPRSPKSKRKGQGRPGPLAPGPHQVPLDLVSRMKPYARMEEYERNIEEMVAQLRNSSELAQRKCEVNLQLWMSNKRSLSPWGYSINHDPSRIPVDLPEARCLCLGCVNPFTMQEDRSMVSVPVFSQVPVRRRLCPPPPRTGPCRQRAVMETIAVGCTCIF
Sequence of IL-17D (Q8TAD2 16-202): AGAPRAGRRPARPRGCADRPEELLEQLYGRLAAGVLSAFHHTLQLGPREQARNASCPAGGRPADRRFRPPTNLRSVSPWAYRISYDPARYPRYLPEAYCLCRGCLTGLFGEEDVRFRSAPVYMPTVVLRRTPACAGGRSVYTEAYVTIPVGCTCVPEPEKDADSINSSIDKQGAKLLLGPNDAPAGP
Sequence of IL-17C (Q9P0M4 19-197): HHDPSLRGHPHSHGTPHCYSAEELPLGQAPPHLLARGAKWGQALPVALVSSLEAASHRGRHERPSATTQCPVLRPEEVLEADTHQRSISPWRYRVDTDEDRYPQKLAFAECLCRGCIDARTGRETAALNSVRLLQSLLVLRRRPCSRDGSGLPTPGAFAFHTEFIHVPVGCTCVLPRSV

B1: Ixekizumab (antibody, V domains shown)
VH: QVQLVQSGAEVKKPGSSVKVSCKASGYSFTDYHIHWVRQAPGQGLEWMGVINPMYGTTDYNQRFKGRVTITADESTSTAYMELSSLRSEDTAVYYCARYDYFTGTGVYWGQGTLVTVSS
VL: DIVMTQTPLSLSVTPGQPASISCRSSRSLVHSRGNTYLHWYLQKPGQSPQLLIYKVSNRFIGVPDRFSGSGSGTDFTLKISRVEAEDVGVYYCSQSTHLPFTFGQGTKLEIK
no binding (tested: 100 ng/well): IL-17B | IL-17C | IL-17D
